The source of these data is paper PMC9224634, “Noninvasive Mapping of Angiotensin Converting Enzyme-2 in Pigeons Using Micro Positron Emission Tomography” (Life, 2022).

Usually pKd stands for the Kd on a negative log10 scale, so that one unit is a factor of ten. As a reminder, the pKi is −log10 of the Ki, conventionally taken in molar units.

pKd, pKi: −log10 of the molar value.

In data set [1] the test system is ACE2. Nature of the data set: in vivo. To be noted: female, iv, 15 MBq. How it is done:
Injection route: Chloral hydrate 10% was used for intramuscular anesthesia.
Micro PET/CT imaging: Four healthy pigeons (female) were injected with 15 MBq ^68Ga-HZ20 through the pterygoid vein, and then dynamic imaging was performed for 40 min to observe the dynamic distribution of the probe in the body. The images were acquired for 30 min, 40 min and 60 min, with a single PET scan time of 600 s. The Avator software was used to display the images, outline the region of interest for the main organs, record the maximum standard uptake values for the outlined areas, and calculate the dynamic changes in SUVmax for different organs. At the end of the 60 min imaging, the pigeons were euthanized and the main organs were obtained for in vitro imaging.

In data set [2] the target is ACE2. Further details: method as in PMID 34174177. To be noted: cited from earlier work.
The target in data set [3] is ACE2. On the set-up: method as in earlier work. The conditions noted are these: ACE2-specific peptide inhibitor; ref 10 (Huang et al.); cited from earlier work.

`CC(C)C[C@@H]1NC(=O)[C@@H]2CCCN2C(=O)[C@H](CO)NC(=O)[C@@H](NC(=O)[C@H](Cc2c[nH]cn2)NC(=O)[C@H](CO)NC(=O)[C@H](Cc2ccc(O)cc2)NC(=O)[C@H](CC(=O)O)NC(=O)CNC(=O)CN2CCN(CC(=O)O)CCN(CC(=O)O)CCN(CC(=O)O)CC2)CSSC[C@@H](C(=O)N[C@H](C(=O)N[C@@H](Cc2ccc(O)cc2)C(=O)N2CCC[C@H]2C(=O)N[C@@H](CC(=O)O)C(=O)N2CCC[C@H]2C(=O)N[C@@H](CCC(=O)O)C(=O)NCC(=O)NCC(=O)NCC(N)=O)[C@@H](C)O)NC(=O)[C@H](CCCCN)NC(=O)[C@H](Cc2c[nH]c3ccccc23)NC(=O)[C@H](Cc2c[nH]c3ccccc23)NC(=O)[C@@H]2CCCN2C(=O)[C@H](Cc2ccc(O)cc2)NC(=O)[C@H](Cc2ccc(O)cc2)NC(=O)[C@H](CCCNC(=N)N)NC1=O` [68Ga-HZ20, metal not drawn]: the SUV at 40 min in the data set with ACE2 [1] (SUVmax heart, final) came out at 0.84 SUV; with ACE2 [1] (liver uptake (SUVmax)) it was 2.51 SUV; in the data set on ACE2 [1] (stomach uptake (SUVmax), peak), 0.63 SUV. For the same molecule, in the data set with ACE2 [1] (SUVmax heart, initial), the SUV at 0 h was found to be 3.08 SUV. Moreover, the SUV at 20 min in the data set on ACE2 [1] (SUVmax kidney) was 6.95 SUV; with ACE2 [1] (SUVmax lung) it was 1.11 SUV. Besides, the SUV at 1 h is 3.05 SUV in the data set on ACE2 [1] (kidney uptake (SUV)), 0.51 SUV with ACE2 [1] (liver uptake (SUV)), 0.41 SUV with ACE2 [1] (lung uptake (SUV)) and 0.52 SUV with ACE2 [1] (stomach uptake (SUV)). Besides, the SUV in the data set with ACE2 [1] (liver uptake (SUVmax), initial) turned out to be 0.91 SUV.

With “Ac-GDYSHCSPLRYYPWWKCTYPDPEGGG-NH2 (disulfide) [DX600]”, at ACE2 [2], the negative logarithm of the Kd (pKd) is 7.01. Further, the negative-log Ki (pKi) on ACE2 [3] was 8.55.
